From patent publication US6403765B1, “Truncated Apaf-1 and methods of use thereof” (Thomas Jefferson University, priority 1998, dated 2002) come the findings set out here.

Assay [1] deals with T1, procaspase-9 (Homo sapiens, UniProt P55211).
T1 construct: schematic representation of full length procaspase-9; made in house; host or cells: coupled in vitro transcription/translation in rabbit reticulocyte lysate (TNT Kit, Promega)
T1 sequence (P55211 1-416): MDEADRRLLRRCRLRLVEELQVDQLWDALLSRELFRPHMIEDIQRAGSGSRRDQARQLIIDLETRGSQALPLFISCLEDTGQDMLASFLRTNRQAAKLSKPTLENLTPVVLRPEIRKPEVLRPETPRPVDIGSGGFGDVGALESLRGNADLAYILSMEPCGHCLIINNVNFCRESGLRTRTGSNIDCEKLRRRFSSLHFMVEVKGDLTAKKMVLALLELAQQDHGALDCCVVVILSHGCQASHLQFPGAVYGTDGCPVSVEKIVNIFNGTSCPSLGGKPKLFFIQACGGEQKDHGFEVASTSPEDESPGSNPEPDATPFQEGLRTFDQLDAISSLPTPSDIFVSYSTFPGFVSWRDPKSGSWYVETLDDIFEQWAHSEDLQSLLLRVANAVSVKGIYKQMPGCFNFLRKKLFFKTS
In words: In vitro caspase 9 activation assay: recombinant Apaf-1 variants incubated with in vitro translated procaspase-9. Conditions: bacterial lysates with truncated Apaf-1 variants, FIG. 2B. It is filed as biochemical. Here is the method: SDS sample buffer was then added to each sample, boiled and subjected to SDS-PAGE analysis followed by autoradiography. In FIG. 2A procaspase-9 was in vitro translated in the presence of ^35S-methionine. Following translation procaspase-9 was desalted by gel filtration through a biospin column (BioRad) to remove unincorporated methionine and free nucleotides. Desalted procaspase-9 was then incubated with 200 ng Ni^2+-affinity purified bacterially expressed recombinant Apaf-530 (WT or K149R mutant) in the presence or absence of cytochrome c or dATP or both for 2 h at 30° C. A mock sample containing Ni^2+-affinity purified material from bacteria transformed with an empty vector was used as a negative control. Following incubation the products were analyzed by SDS-PAGE and autoradiography. In FIG. 2B^35S-labeled procaspase-9 (as described above) was incubated with bacterial lysates containing truncated Apaf-1 variants as indicated and then analyzed as above (2B upper panel). The bacterial lysates were analyzed by SDS-PAGE and immunoblotted with an Apaf-1 antibody which recognizes the N-terminus of Apaf-1 (lanes 2-6) and an anti T7-tag antibody (lanes 7-8) to confirm expression and equivalent concentration of the different Apaf-1 variants (2B lowerpanel). The molecular mass markers are indicated to the right of the lower panel.
^35S-labeled caspases were obtained by in vitro translation in the presence of ^35S-methionine using a coupled transcription/translation system in rabbit reticulocyte lysate using TNT Kit (Promega) according to the manufacturer's recommendations.
To determine the role of the WD-40 repeat in the mechanism of Apaf-1-induced processing of procaspase-9, truncated Apaf-1 (Apaf-530) lacking its WD-40 repeats (FIG. 1) was expressed and purified. To reconstitute a recombinant caspase-9 activation system, the truncated Apaf-530 was incubated with in vitro translated recombinant procaspase-9 in the presence or absence of cytochrome c and dATP. […] It was previously shown that mutation of CED-4 K165R which is required for nucleotide binding destroys its activity (Chinnaiyan et al., Nature 388:728-729, 1997; Jarnes et al., Curr. Biol. 7:246-252, 1997; Seshagiri and Miller, Curr. Biol. 7:455-460, 1997). […] Therefore, either binding of Apaf-1 to cytochrome c and dATP or deletion of the repeats could induce a conformational change enabling Apaf-1 to bind and process procaspase-9.
In FIG. 3, ^35S-labeled WT or mutant D330A, D315A or C287A mutants of procaspase-9 or prodomainless procaspase-9 (Δpro, residues 134-416) were incubated with buffer (lanes 1, 4, 7, 10, 13), purified Apaf-530 (lanes 2, 5, 8, 11, 14) or mock purified material (lanes, 3, 6, 9, 12, 15) and then analyzed by SDS-PAGE and autoradiography.

Assay [2] concerns the target T2, T7-tagged Bcl-xL (Homo sapiens, UniProt Q07817).
T2 construct: expressed in transfected cells; host or cells: 293 cells
The experiment in a line: Co-immunoprecipitation of Flag-tagged Apaf-1 variants or procaspase-9 with T7-tagged Bcl-xL in 293 cells. Particulars: anti-Flag immunoprecipitation, anti-T7 blot, 36 hours, FIG. 16. It is filed as binding. As for the experimental part:
In vivo interaction experiments between Apaf-1 variants and Bcl-xL were performed. To analyze the ability of Apaf-1 to interact with Bcl-xL, 293 cells were co-transfected with constructs encoding T7-tagged Bcl-xL and constructs encoding Flag-tagged Apaf-97 (FIG. 16, lane 1), Apaf-1 (FIG. 16, lane 2), Apaf-530 (FIG. 16, lane 3) Apaf-530ΔCARD (FIG. 16, lane 4), or procaspase-9 C287A (FIG. 16, lane 5). After 36 hours, extracts were prepared and immunoprecipitated with a monoclonal antibody to the Flag epitope. The immunoprecipitates (FIG. 16, upper panel) were analyzed by SDS-PAGE and immunoblotted with a horseradish peroxidase-conjugated T7 antibody. The corresponding cellular extracts were also analyzed by SDS-PAGE and immunoblotted with a horseradish peroxides-conjugated T7 antibody (FIG. 16, middle panel) or an anti-Flag antibody (FIG. 16, lower panel).

Where a chain is given by its changes, count along the chain named. Names and notes keep the numbering of the source.

T2 sequence (Q07817 whole entry): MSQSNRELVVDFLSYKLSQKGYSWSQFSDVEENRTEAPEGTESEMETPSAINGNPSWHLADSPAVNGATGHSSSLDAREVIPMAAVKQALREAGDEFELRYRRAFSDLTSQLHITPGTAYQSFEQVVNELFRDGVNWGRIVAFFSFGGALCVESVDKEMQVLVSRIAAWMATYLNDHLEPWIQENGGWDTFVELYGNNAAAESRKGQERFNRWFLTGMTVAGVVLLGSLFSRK

B1: Apaf-WD: WD-40 repeat region of Apaf-1, residues 530-1194 (protein, UniProt O14727 530-1194, looked up, fragment)
chain: RHILDEKDCAVSENFQEFLSLNGHLLGRQPFPNIVQLGLCEPETSEVYQQAKLQAKQEVDNGMLYLEWINKKNITNLSRLVVRPHTDAVYHACFSEDGQRIASCGADKTLQVFKAETGEKLLEIKAHEDEVLCCAFSTDDRFIATCSVDKKVKIWNSMTGELVHTYDEHSEQVNCCHFTNSSHHLLLATGSSDCFLKLWDLNQKECRNTMFGHTNSVNHCRFSPDDKLLASCSADGTLKLWDATSANERKSINVKQFFLNLEDPQEDMEVIVKCCSWSADGARIMVAAKNKIFLFDIHTSGLLGEIHTGHHSTIQYCDFSPQNHLAVVALSQYCVELWNTDSRSKVADCRGHLSWVHGVMFSPDGSSFLTSSDDQTIRLWETKKVCKNSAVMLKQEVDVVFQENEVMVLAVDHIRRLQLINGRTGQIDYLTEAQVSCCCLSPHLQYIAFGDENGAIEILELVNNRIFQSRFQHKKTVWHIQFTADEKTLISSSDDAEIQVWNWQLDKCIFLRGHQETVKDFRLLKNSRLLSWSFDGTVKVWNIITGNKEKDFVCHQGTVLSCDISHDATKFSSTSADKTAKIWSFDLLLPLHELRGHNGCVRCSAFSVDSTLLATGDDNGEIRIWNVSNGELLHLCAPLSEEGAATHGGWVTDLCFSPDGKMLIS
With B1, the “activity of the Apaf-1 variant in promoting activation of procaspase-9” value in assay [1] was “inactive”.

B2: procaspase-9: Flag-tagged procaspase-9 C287A co-transfected with T7-tagged Bcl-xL (protein, UniProt P55211 1-416, looked up, variant C287A)
pro-form: T1 sequence (P55211 1-416) with C287A
modifications: pro-form Flag tag
notes: Flag-tagged procaspase-9 C287A co-transfected with T7-tagged Bcl-xL
As to B2, the “co-immunoprecipitation with Bcl-xL” value in assay [2] was “capable of immunoprecipitating”.

B3: Apaf-350: truncated Apaf-1, residues 1-350 (protein, UniProt O14727 1-350, looked up, fragment)
chain: MDAKARNCLLQHREALEKDIKTSYIMDHMISDGFLTISEEEKVRNEPTQQQRAAMLIKMILKKDNDSYVSFYNALLHEGYKDLAALLHDGIPVVSSSSGKDSVSGITSYVRTVLCEGGVPQRPVVFVTRKKLVNAIQQKLSKLKGEPGWVTIHGMAGCGKSVLAAEAVRDHSLLEGCFPGGVHWVSVGKQDKSGLLMKLQNLCTRLDQDESFSQRLPLNIEEAKDRLRILMLRKHPRSLLILDDVWDSWVLKAFDSQCQILLTTRDKSVTDSVMGPKYVVPVESSLGKEKGLEILSLFVNMKKADLPEQAHSIIKECKGSPLVVSLIGALLRDFPNRWEYYLKQLQNKQF
On to B3, for which the “activity of the Apaf-1 variant in promoting activation of procaspase-9” value in assay [1] was “further reduced its activity”.

B4: Apaf-420: truncated Apaf-1, residues 1-420, minimal conserved sequence between Apaf-1 and CED-4 (protein, UniProt O14727 1-420, looked up, fragment)
chain: MDAKARNCLLQHREALEKDIKTSYIMDHMISDGFLTISEEEKVRNEPTQQQRAAMLIKMILKKDNDSYVSFYNALLHEGYKDLAALLHDGIPVVSSSSGKDSVSGITSYVRTVLCEGGVPQRPVVFVTRKKLVNAIQQKLSKLKGEPGWVTIHGMAGCGKSVLAAEAVRDHSLLEGCFPGGVHWVSVGKQDKSGLLMKLQNLCTRLDQDESFSQRLPLNIEEAKDRLRILMLRKHPRSLLILDDVWDSWVLKAFDSQCQILLTTRDKSVTDSVMGPKYVVPVESSLGKEKGLEILSLFVNMKKADLPEQAHSIIKECKGSPLVVSLIGALLRDFPNRWEYYLKQLQNKQFKRIRKSSSYDYEALDEAMSISVEMLREDIKDYYTDLSILQKDVKVPTKVLCILWDMETEEVEDILQEFVN
Turning to B4, the “less activity than Apaf-530 in promoting procaspase-9 processing” value in assay [1] is reported as roughly 90%.
